Laboratory results as given in patent US20060035230A1 (BOYCE THOMPSON INSTITUTE FOR PLANT RESEARCH, published 2006).

Biological target: T1, PtiDC1Δ70 (AvrPtoB lacking the first 70 amino acids) (Pseudomonas syringae pv. tomato DC3000, UniProt Q8RSY1 71-553)
T1 construct: also called AvrPtoB prey PtiDC1Δ70; avrPtoB (PtiDC1Δ70)
T1 sequence: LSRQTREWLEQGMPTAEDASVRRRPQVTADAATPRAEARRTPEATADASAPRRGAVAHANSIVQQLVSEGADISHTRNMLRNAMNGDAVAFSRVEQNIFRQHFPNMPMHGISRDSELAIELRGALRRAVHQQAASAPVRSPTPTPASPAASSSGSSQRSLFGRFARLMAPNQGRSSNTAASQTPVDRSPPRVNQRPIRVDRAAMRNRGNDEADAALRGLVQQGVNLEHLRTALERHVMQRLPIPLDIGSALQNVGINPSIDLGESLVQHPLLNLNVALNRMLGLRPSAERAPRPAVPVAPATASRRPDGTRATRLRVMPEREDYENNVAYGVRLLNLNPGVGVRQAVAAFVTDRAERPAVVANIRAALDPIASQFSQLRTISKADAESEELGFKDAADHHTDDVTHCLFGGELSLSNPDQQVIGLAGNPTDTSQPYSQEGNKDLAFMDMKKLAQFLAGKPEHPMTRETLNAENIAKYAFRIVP
Assay: LexA yeast two-hybrid, AvrPtoB prey PtiDC1Δ70 against kinase bait

B1: Pti1 kinase (enzyme)
chain: MSCFSCCDDDDMHRATDNGPFMAHNSAGNNGGQRATESAQRETQTVNIQPIAVPSIAVDELKDITDNFGSKALIGEGSYGRVYHGVLKSGRAAAIKKLDSSKQPDREFLAQVSMVSRLKDENVVELLGYCVDGGFRVLAYEYAPNGSLHDILHGRKGVKGAQPGPVLSWAQRVKIAVGAAKGLEYLHEKAQPHIIHRDIKSSNILLFDDDVAKIADFDLSNQAPDMAARLHSTRVLGTFGYHAPEYAMTGQLSSKSDVYSFGVVLLELLTGRKPVDHTLPRGQQSLVTWATPRLSEDKVKQCVDARLNTDYPPKAIAKMAAVAALCVQYEADFRPNMSIVVKALQPLLPRPVPS
notes: Bait fusion in pEG202
- binding result: no binding
